Measurements taken from patent US20200024330A1.

What was measured:
Assay in all cases: cell-based or functional assay
[1] = molecular target: HIV-1 Env of isolate 92UG037 (HIV-1)
[2] = molecular target: HIV-1 Env of isolate 93TH305 (pseudovirus) (HIV-1 isolate 93TH305, subtype B)
[3] = molecular target: HIV-1 Env of isolate CAAN.A2 (HIV-1)
[4] = molecular target: HIV-1 Env of isolate MGRM-A-010 (clade A), on pseudovirus (HIV-1)
[5] = molecular target: HIV-1 Env of isolate MGRM-A-013 (clade A), on pseudovirus (HIV-1)
[6] = molecular target: HIV-1 Env of isolate MGRM-AG-012 (CRF_AG), on pseudovirus (HIV-1)
[7] = molecular target: HIV-1 Env of isolate MGRM-C-012 (HIV-1)
[8] = molecular target: HIV-1 Env of isolate MGRM-Chronic-B-001 (HIV-1)
[9] = molecular target: HIV-1 Env of isolate MGRM-Chronic-B-003 (HIV-1)
[10] = molecular target: HIV-1 Env of isolate MGRM-Chronic-B-004 (HIV-1)
[11] = molecular target: HIV-1 Env of isolate MGRM-Chronic-B-008 (HIV-1)
[12] = molecular target: HIV-1 Env of isolate MGRM-D-008 (HIV-1)
[13] = molecular target: HIV-1 Env of isolate MGRM-D-021 (HIV-1)
[14] = molecular target: HIV-1 Env of isolate MGRM-D-022 (HIV-1)
[15] = molecular target: HIV-1 Env of isolate MGRM-D-029 (subtype D), on pseudovirus (HIV-1)
[16] = molecular target: HIV-1 Env of isolate MGRM-F1-004 (subtype F), on pseudovirus (HIV-1)
[17] = molecular target: HIV-1 Env of isolate MGRM-F1-015 (subtype F), on pseudovirus (HIV-1)
[18] = molecular target: HIV-1 Env of isolate MGRM-F1-017 (subtype F), on pseudovirus (HIV-1)
[19] = molecular target: HIV-1 Env of isolate MGRM-F1-021 (subtype F), on pseudovirus (HIV-1)
[20] = molecular target: HIV-1 Env of isolate SC422661.8 (HIV-1)
[21] = molecular target: HIV-1 92RW020 envelope glycoprotein (Env) (HIV-1)
[22] = molecular target: HIV-1 Env of isolate MGRM-G-014 (subtype G) (HIV-1)
[23] = molecular target: HIV-1 Env of isolate MGRM-F1-017 (HIV-1)

5329_C19 (PGT-136) (antibody), sequence (VH): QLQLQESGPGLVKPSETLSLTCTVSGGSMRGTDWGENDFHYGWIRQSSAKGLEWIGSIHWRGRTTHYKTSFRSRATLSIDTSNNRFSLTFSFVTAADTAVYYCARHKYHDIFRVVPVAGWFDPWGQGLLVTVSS
5329_C19 (PGT-136) (antibody), sequence (VL): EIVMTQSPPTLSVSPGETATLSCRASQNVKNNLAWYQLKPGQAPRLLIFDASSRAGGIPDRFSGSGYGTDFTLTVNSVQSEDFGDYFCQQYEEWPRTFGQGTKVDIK
PGT-141 (4964_G22; 4993_K13) (antibody), sequence (VH): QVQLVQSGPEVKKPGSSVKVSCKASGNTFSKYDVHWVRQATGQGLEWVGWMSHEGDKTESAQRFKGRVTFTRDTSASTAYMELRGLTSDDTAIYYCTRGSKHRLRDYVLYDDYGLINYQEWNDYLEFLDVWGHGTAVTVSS
PGT-141 (4964_G22; 4993_K13) (antibody), sequence (VL): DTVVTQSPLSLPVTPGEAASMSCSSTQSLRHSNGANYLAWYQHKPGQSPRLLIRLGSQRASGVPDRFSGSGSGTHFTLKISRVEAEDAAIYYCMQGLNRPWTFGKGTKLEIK
PGT-143 (4980_N08) (antibody), sequence (VH): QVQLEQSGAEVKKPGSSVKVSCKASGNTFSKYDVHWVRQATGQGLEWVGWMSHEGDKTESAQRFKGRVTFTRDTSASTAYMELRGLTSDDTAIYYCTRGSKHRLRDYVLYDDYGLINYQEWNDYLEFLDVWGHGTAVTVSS
PGT-143 (4980_N08) (antibody), sequence (VL): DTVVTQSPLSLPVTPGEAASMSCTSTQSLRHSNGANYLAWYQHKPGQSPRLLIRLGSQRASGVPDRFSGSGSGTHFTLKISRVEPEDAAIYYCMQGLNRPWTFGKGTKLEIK
PGT-144 (4970_K22) (antibody), sequence (VH): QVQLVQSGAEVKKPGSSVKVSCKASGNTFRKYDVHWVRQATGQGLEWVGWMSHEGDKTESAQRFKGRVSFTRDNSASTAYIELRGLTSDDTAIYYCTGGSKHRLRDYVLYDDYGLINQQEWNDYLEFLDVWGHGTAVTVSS
PGT-144 (4970_K22) (antibody), sequence (VL): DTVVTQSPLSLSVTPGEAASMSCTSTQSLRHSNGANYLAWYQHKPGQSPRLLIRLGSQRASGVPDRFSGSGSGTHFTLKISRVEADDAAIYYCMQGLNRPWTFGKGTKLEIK
PGT-142 (4995_E20) (antibody), sequence (VH): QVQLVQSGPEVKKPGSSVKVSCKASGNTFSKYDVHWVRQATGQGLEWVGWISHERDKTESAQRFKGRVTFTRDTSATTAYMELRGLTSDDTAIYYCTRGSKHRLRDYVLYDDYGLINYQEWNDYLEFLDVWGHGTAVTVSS

Q: Which results are given for 5329_C19 (PGT-136) (antibody)?
A: neutralization IC50 [1]: > 50 µg/mL; IC50 (µg/mL) neutralization [2]: 20.2 µg/mL; IC50 [3]: > 50 µg/mL; IC50, single-round pseudovirus neutralization [4]: > 50 µg/mL; IC50, single-round pseudovirus neutralization [5]: > 50 µg/mL; IC50, single-round pseudovirus neutralization [6]: > 50 µg/mL; IC50 [7]: > 50 µg/mL; IC50 [8]: > 50 µg/mL; IC50 [9]: > 50 µg/mL; IC50 [10]: > 50 µg/mL; IC50 [11]: > 50 µg/mL; IC50 [12]: > 50 µg/mL; IC50 [13]: > 50 µg/mL; IC50 [14]: > 50 µg/mL; IC50, pseudovirus neutralization [15]: > 50 µg/mL; IC50, pseudovirus neutralization [16]: > 50 µg/mL; IC50, pseudovirus neutralization [17]: > 50 µg/mL; IC50, pseudovirus neutralization [18]: > 50 µg/mL; IC50, pseudovirus neutralization [19]: > 50 µg/mL; IC50 [20]: > 50 µg/mL

Q: For PGT-121 (antibody), which IC50 neutralization [21] is on record?
A: 0.0063 µg/mL

Q: What about the IC50 (µg/mL), pseudovirus neutralization [1] of the same substance?
A: 0.031 µg/mL

Q: Which results are given for PGT-122 (antibody)?
A: IC50 neutralization [21]: 0.0072 µg/mL; IC50 (µg/mL), pseudovirus neutralization [1]: 0.068 µg/mL

Q: Which neutralization IC50 [22] does the source give for PGT-141 (4964_G22; 4993_K13) (antibody) here?
A: 0.222 µg/mL

Q: For PGT-142 (4995_E20) (antibody), which neutralization IC50 [22] is on record?
A: 0.076 µg/mL

Q: How did the neutralization IC50 [22] turn out when PGT-143 (4980_N08) (antibody) was run?
A: 0.107 µg/mL

Q: PGT-144 (4970_K22) (antibody) was tested. Which neutralization IC50 [22] did it give?
A: 0.562 µg/mL

Q: For PGV04 (antibody), which IC50 [1] is on record?
A: 0.145 µg/mL

Q: What about the IC50 (µg/mL), pseudovirus neutralization [12] of the same substance?
A: 3.56 µg/mL

Q: What about the IC50 (µg/mL), pseudovirus neutralization [13] of the same substance?
A: > 50 µg/mL

Q: What about the IC50 (µg/mL), pseudovirus neutralization [14] of the same substance?
A: > 50 µg/mL

Q: And the neutralization IC50 [22]?
A: 0.056 µg/mL

Q: Which results are given for VRC01 (antibody)?
A: IC50 [3]: 0.722 µg/mL; IC50 [8]: 0.066 µg/mL; IC50 [9]: 0.1 µg/mL; IC50 [10]: 0.055 µg/mL; IC50 [11]: 0.155 µg/mL; IC50, pseudovirus neutralization [13]: 33.4 µg/mL; IC50, pseudovirus neutralization [14]: > 50 µg/mL; IC50, pseudovirus neutralization [23]: 1.08 µg/mL; neutralization IC50 [22]: 0.056 µg/mL; neutralization IC50 [20]: 0.179 µg/mL
